“Also recorded” adds a separate entry of the source.
Columns and labels:
[1] = molecular target: T1, M2 muscarinic acetylcholine receptor (M2AchR) (Rattus norvegicus, UniProt P10980); test: CRE-SEAP reporter gene assay, coupling of Gαs-based chimeric G proteins with M2AchR (transient); assay type: cell-based; conditions: 10 uM acetylcholine; for increase in SEAP activity: HEK-293 cells cotransfected with chimera, M2AchR and CRE-SEAP
T1 construct: expressed in transfected cells; host or cells: HEK-293
T1 sequence (P10980 1-466): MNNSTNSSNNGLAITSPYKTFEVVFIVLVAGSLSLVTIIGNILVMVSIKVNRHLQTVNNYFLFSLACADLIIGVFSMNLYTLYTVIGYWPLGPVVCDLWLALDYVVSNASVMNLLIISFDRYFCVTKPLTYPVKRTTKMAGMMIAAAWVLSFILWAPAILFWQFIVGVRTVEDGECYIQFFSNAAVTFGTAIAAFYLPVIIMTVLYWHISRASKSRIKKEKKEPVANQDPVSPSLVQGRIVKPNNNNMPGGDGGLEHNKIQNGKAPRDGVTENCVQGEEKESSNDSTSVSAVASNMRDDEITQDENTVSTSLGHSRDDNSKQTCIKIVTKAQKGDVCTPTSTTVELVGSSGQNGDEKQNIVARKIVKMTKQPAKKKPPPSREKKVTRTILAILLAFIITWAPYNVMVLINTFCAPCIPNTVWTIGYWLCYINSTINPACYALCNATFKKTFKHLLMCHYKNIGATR
Description: The constructs encoding chimeric G proteins were made by substituting C-terminal amino acids of Gαs (SEQ ID NO: 1) with the corresponding C-terminal amino acid sequences of other Gα subunits. A first set of Gαs-based chimeric G proteins was prepared by designing constructs encoding seven Gαs-Gαi chimeras in which the C-terminal 5, 11, 13, 28, 65, 84, or 131 amino acids of Gαs were substituted with the corresponding C-terminal amino acids from the […]. Briefly, HEK-293 cells were cotransfected with chimera constructs together with the CRE-SEAP reporter gene construct and a cDNA encoding the M2 muscarinic acetylcholine receptor (M2AchR), a GPCR that couples to Gαo but not to Gαs and inhibits cAMP production. The transfected cells were cultured in the presence or absence of acetylcholine and then assayed for SEAP activity.
A series of chimeric constructs were prepared in which the final 13 C-terminal amino acids of the Gαs subunit were substituted with the final 13 C-terminal amino acids from Gαo, Gαz, Gαt, Gαq, or Gα15 subunits. Also tested were the Gαs-Gαi-13 and a chimera containing the last 5 C-terminal amino acids of Gαk (Gαs-Gαk-5 (SEQ ID NO: 2)). These chimeric constructs were tested for coupling with M2AchR. […] The Gαs-Gαo-13 (SEQ ID NO: […]) and Gαs-Gα15-13 (SEQ ID NO: 7) allowed approximately 2-fold increases in SEAP activity.
(§1) Chimeric G protein cloning: An insert containing rat Gαs cDNA was cut out using the restriction enzymes SaII and HinDIII, and ligated into pcDNA3.1(−) cut with XhoI and HinDIII. The chimeric G proteins with the desired C-terminal amino acid substitutions were prepared by PCR using Gαs as a template. More specifically, Gαs was PCR amplified between an internal EcoRI site and the stop codon, with a 3′ HinDIII placed immediately after the stop codon. A different 3′ oligonucleotide was used for each Gαs chimera and contained a 39 bp sequence that encoded the substituted amino acids at the C-terminus selected from the donor Gα subunit.
M2AchR GPCR cloning: Rat M2AchR receptor was cloned by PCR from cDNA templates (ATCC) and ligated into pcDNA 3.1(−) for expression in mammalian cells.
CRE-SEAP Reporter Gene Assay: 0.5×10^5 HEK-293 cells (ATCC) were seeded into each well of a 96 well plate 24 hours prior to transfection. cDNAs encoding M2AchR, SEAP reporters (Mercury Pathway Profiling System, BD Biosciences), and G protein chimeras were transfected into HEK-293 cells using lipofectamine reagent (Invitrogen) according to the manufacturer's protocols. […]
Following transfection, the cells were maintained for 48 hours in 200 ul serum free media containing 10 uM acetylcholine (Sigma). […] Fluorescence was then measured using a CytoFluor 4000 multi well plate reader (Applied Biosystems).

[2] = system: nine GPCRs that do not bind to Gαs (serotonin 1b, neuropeptide Y1, leukotriene B4, dopamine D4, GNRH, UDP, calcium-sensing, T1R2/T1R3); test: CRE-SEAP reporter gene assay, coupling of chimeric G proteins with a variety of GPCRs; assay type: cell-based; conditions: HEK-293 cells, GPCR ligand 48 hours
Text: The GPCRs examined were those that couple with Gαi/Gαo subunits (serotonin 1b, neuropeptide Y1, leukotriene B4, and dopamine D4), Gαq (GNRH, UDP, and calcium-sensing receptors), and the orphan mammalian sweet taste receptor complex (T1R2 and T1R3) with unknown coupling preference. The Gαs-based chimeric G proteins examined in this example were Gαs-Gαi-5, Gαs-Gαt-13 (SEQ ID NO: 3), Gαs-Gαo-13 (SEQ ID NO: 4), Gαs-Gαi-13 (SEQ ID NO: 5), Gαs-Gαz-6 (SEQ ID NO: 18), Gαs-Gα15-13 (SEQ ID NO: 7), Gαs-Gαk-5 (SEQ ID NO: 2), and Gαs-Gαq-13 (SEQ ID NO: 8). The chimeric G protein constructs were prepared as described herein. For the coupling assay, HEK-293 cells were cotransfected with each of the Gαs-based chimeric G protein constructs of interest together with the CRE-SEAP reporter gene construct and a cDNA encoding the GPCR to be tested. The transfected cells were cultured in the presence or absence of a GPCR ligand and then assayed for SEAP activity.
as §1, with “substitutions from the Gαi, Gαt, Gαo, Gαz, Gα15, Gαk, and Gαq” for “substitutions”
GPCR cloning: Mouse 5-HT1B, mouse dopamine D4, human GNRH, and human neuropeptide Y1 receptors were cloned by PCR from cDNA templates (ATCC) and ligated into pcDNA 3.1(−) (Invitrogen) for expression in mammalian cells. […]
Following transfection, the cells were maintained for 48 hours in 200 ul serum free media containing GPCR ligand. […] Fluorescence was then measured using a CytoFluor 4000 multi well plate reader (Applied Biosystems).

| Molecule | ligand induced increases in SEAP activity mediated by M2AchR (in words) ([1]; HEK-293 cells) | GPCRs tested that coupled to the chimera [2] | increase in SEAP activity [1] |
| --- | --- | --- | --- |
| Gαs-Gαi-13: Gαs-based chimeric G protein, C-terminal 13 amino acids of Gαs substituted with those of Gαi (protein, Chimeric protein, Gαs-based chimeric G protein, C-terminal 13 amino acids of Gαs substituted with those of Gαi) MGCLGNSKTEDQRNEEKAQREANKKIEKQLQKDKQVYRATHRLLLLGAGESGKSTIVKQMRILHVNGFNGEGGEEDVPDYASNSDGEKATKVQDIKNNLKEAIETIVAAMSNLVPPVELANPENQFRVDYILSVMNVPNFDFPPEFYEHAKALWEDEGVRACYERSNEYQLIDCAQYFLDKIDVIKQADYVPSDQDLLRCRVLTSGIFETKFQVDKVNFHMFDVGGQRDERRKWIQCFNDVTAIIFVVASSSYNMVIREDNQTNRLQEALNLFKSIWNNRWLRTISVILFLNKQDLLAEKVLAGKSKIEDYFPEFARYTTPEDATPEPGEDPRVTRAKYFIRDEFLRISTASGDGRHYCYPHFTCAVDTENIRRVFNDCRDVIIKNNLKDCGLF | Particularly effective; also recorded: highest responses | seven of the nine | – |
| Gαs-Gαz-13: Gαs-based chimeric G protein, final 13 C-terminal amino acids substituted with those of Gαz (protein, Chimeric protein, Gαs-based chimeric G protein, final 13 C-terminal amino acids substituted with those of Gαz) MGCLGNSKTEDQRNEEKAQREANKKIEKQLQKDKQVYRATHRLLLLGAGESGKSTIVKQMRILHVNGFNGEGGEEDVPDYASNSDGEKATKVQDIKNNLKEAIETIVAAMSNLVPPVELANPENQFRVDYILSVMNVPNFDFPPEFYEHAKALWEDEGVRACYERSNEYQLIDCAQYFLDKIDVIKQADYVPSDQDLLRCRVLTSGIFETKFQVDKVNFHMFDVGGQRDERRKWIQCFNDVTAIIFVVASSSYNMVIREDNQTNRLQEALNLFKSIWNNRWLRTISVILFLNKQDLLAEKVLAGKSKIEDYFPEFARYTTPEDATPEPGEDPRVTRAKYFIRDEFLRISTASGDGRHYCYPHFTCAVDTENIRRVFNDCRDVIIQNNLKYIGLC | – | – | approximately 2 fold |
| Gαs-Gα15-13: Gαs-based chimeric G protein, final 13 C-terminal amino acids substituted with those of Gα15 (protein, Chimeric protein, Gαs-based chimeric G protein, final 13 C-terminal amino acids substituted with those of Gα15) MGCLGNSKTEDQRNEEKAQREANKKIEKQLQKDKQVYRATHRLLLLGAGESGKSTIVKQMRILHVNGFNGEGGEEDVPDYASNSDGEKATKVQDIKNNLKEAIETIVAAMSNLVPPVELANPENQFRVDYILSVMNVPNFDFPPEFYEHAKALWEDEGVRACYERSNEYQLIDCAQYFLDKIDVIKQADYVPSDQDLLRCRVLTSGIFETKFQVDKVNFHMFDVGGQRDERRKWIQCFNDVTAIIFVVASSSYNMVIREDNQTNRLQEALNLFKSIWNNRWLRTISVILFLNKQDLLAEKVLAGKSKIEDYFPEFARYTTPEDATPEPGEDPRVTRAKYFIRDEFLRISTASGDGRHYCYPHFTCAVDTENIRRVFNDCRDSVLARYLDEINLL | – | – | approximately 2 fold |

Source: patent US9658208B2, “Methods and G proteins for screening and identifying ligands of G protein-coupled receptors” (Fred Hutchinson Cancer Research Center, priority 2011, dated 2017)
